Measurements from patent publication US20220273789A1.
Several values for one entry are separate records, joined by “and”; a condition that tells them apart may be missing. Identical values can stand only once. Like-named read-outs stand apart in the source and are kept apart here.

Experiments:
human IgG (human) [1] = assay: BLI (Octet), gEgI on Ni-NTA sensor, hIgG in solution
human IgG (human) [2] = assay: BLI Octet, construct on Ni-NTA sensor, hIgG in solution
human IgG (human) [3] = assay: BLI (Octet), gEgI on Ni-NTA sensor, hIgG in solution; remark: listed apart in the source
[4] = target: Human IgG isotype control (ThermoFischer Scientific, ref 12000C) (human); assay: BLI, gEgI on Ni-NTA tips, hIgG in solution

| Substance | Kd (human IgG (human) [1]) [nM] | Response (human IgG (human) [1]) [nm] | Kd (human IgG (human) [2]) [nM] | Response (nm) (human IgG (human) [2]) | koff (human IgG (human) [2]) [s⁻¹] | kon (human IgG (human) [2]) [M⁻¹ s⁻¹] | Kd [4] [nM] | Relative Affinity (%) compared to control construct HSV34 [4] [%] | koff [4] [s⁻¹] | kon [4] [M⁻¹ s⁻¹] | other results |
| --- | --- | --- | --- | --- | --- | --- | --- | --- | --- | --- | --- |
| HSV2-gE_A246W R320G_gI (from UniProt P89475 21-416; P06764 21-256) (receptor) | 0.001 | 0.0639 | < 0.001 | 0.0639 | < 1e-07 | 3430 | – | – | – | – | – |
| HSV2-gE_A246W R320T_gI (from UniProt P89475 21-416; P06764 21-256) (receptor) | 0.001 | 0.0712 | < 0.001 | 0.0712 | < 1e-07 | 1510 | – | – | – | – | – |
| HSV2-gE_A246W-R320D_gI (from UniProt P89475 21-416; P06764 21-256) (receptor) | 0.001 | 0.0712 | – | – | – | – | – | – | – | – | – |
| HSV2-gE_A246W_gI (from UniProt P89475 21-416; P06764 21-256) (receptor) | 6910 | 0.231 | 6910 | 0.231 | 0.00621 | 898 | – | – | – | – | – |
| HSV2-gE_A248G V340W_gI (from UniProt P89475 21-416; P06764 21-256) (receptor) | 39200 | 0.0826 | 39200 | 0.0826 | 0.0107 | 273 | – | – | – | – | – |
| HSV2-gE_A248K V340W_gI (from UniProt P89475 21-416; P06764 21-256) (receptor) | 0.001 | 0.0613 | < 0.001 | 0.0613 | < 1e-07 | 3780 | – | – | – | – | – |
| HSV2-gE_A248T F322A_gI (from UniProt P89475 21-416; P06764 21-256) (receptor) | 7010 | 0.167 | 7010 | 0.167 | 0.00629 | 897 | – | – | – | – | – |
| HSV2-gE_A248T V340M_gI (from UniProt P89475 21-416; P06764 21-256) (receptor) | 0.001 | 0.108 | < 0.001 | 0.108 | < 1e-07 | 4440 | – | – | – | – | – |
| HSV2-gE_A248T V340W_gI (from UniProt P89475 21-416; P06764 21-256) (receptor) | 0.001 | 0.0605 | < 0.001 | 0.0605 | < 1e-07 | 3020 | – | – | – | – | – |
| HSV2-gE_A248T_gI (from UniProt P89475 21-416; P06764 21-256) (receptor) | 12200 | 0.123 | 12200 | 0.123 | 0.00574 | 470 | – | – | – | – | – |
| HSV2-gE_H245A R320D_gI (from UniProt P89475 21-416; P06764 21-256) (receptor) | 6420 | 0.116 | 6420 | 0.116 | 0.00704 | 1100 | – | – | – | – | – |
| HSV2-gE_H245A R320G_gI (from UniProt P89475 21-416; P06764 21-256) (receptor) | 1410 | 0.192 | 1410 | 0.192 | 0.00589 | 4190 | – | – | – | – | – |
| HSV2-gE_H245A R320T_gI (from UniProt P89475 21-416; P06764 21-256) (receptor) | 1160 | 0.23 | 1160 | 0.23 | 0.00537 | 4620 | – | – | – | – | – |
| HSV2-gE_H245D_gI (from UniProt P89475 21-416; P06764 21-256) (receptor) | 17000 | 0.133 | 17000 | 0.133 | 0.00772 | 453 | – | – | – | – | – |
| HSV2-gE_H245E_gI (from UniProt P89475 21-416; P06764 21-256) (receptor) | 11900 | 0.168 | 11900 | 0.168 | 0.00705 | 595 | – | – | – | – | – |
| HSV2-gE_R314P V340W_gI (from UniProt P89475 21-416; P06764 21-256) (receptor) | – | – | – | – | – | – | – | – | – | – | Kd (human IgG (human) [3]): 560 nM; Response (human IgG (human) [3]): 0.134 nm; koff (human IgG (human) [3]): 0.00355 s⁻¹; kon (human IgG (human) [3]): 6340 M⁻¹ s⁻¹ |
| HSV34 (HSV2-gE_gI) (from UniProt P89475 21-416; P06764 21-256) (receptor) | – | – | – | – | – | – | 116 | 100 | 0.000541 | 3870 | – |
| HSV40 (HSV2- gE_289_insert ADIGL_gI) (from UniProt P89475 21-416; P06764 21-256) (receptor) | – | – | – | – | – | – | 628 | 18 | 0.00519 | 8240 | – |
| HSV41 (HSV2-gE_338_insert ARAA_gI) (from UniProt P89475 21-416; P06764 21-256) (receptor) | – | – | – | – | – | – | 1600 | 7 | 0.00309 | 2010 | – |
| HSV42 (HSV2- gE_346_insert ADIT_gI) (from UniProt P89475 21-416; P06764 21-256) (receptor) | – | – | – | – | – | – | – | – | < 1e-07 | 5690 | – |
| HSV43 (HSV2- gE_H245A_gI) (from UniProt P89475 21-416; P06764 21-256) (receptor) | – | – | – | – | – | – | – | – | < 1e-07 | 9410 | – |

| Substance | Kd (human IgG (human) [1]) [nM] | Response (human IgG (human) [1]) [nm] | Kd (human IgG (human) [2]) [nM] | Response (nm) (human IgG (human) [2]) | koff (human IgG (human) [2]) [s⁻¹] | kon (human IgG (human) [2]) [M⁻¹ s⁻¹] | Kd [4] [nM] | Relative Affinity (%) compared to control construct HSV34 [4] [%] | koff [4] [s⁻¹] | kon [4] [M⁻¹ s⁻¹] | other results |
| --- | --- | --- | --- | --- | --- | --- | --- | --- | --- | --- | --- |
| HSV44 (HSV2- gE_H245K_gI) (from UniProt P89475 21-416; P06764 21-256) (receptor) | – | – | – | – | – | – | 673 | 17 | 0.00628 | 9550 | – |
| HSV45 (HSV2- gE_P317R_gI) (from UniProt P89475 21-416; P06764 21-256) (receptor) | – | – | – | – | – | – | 1510 | 8 | 0.00347 | 2340 | Kd (human IgG (human) [3]): 192 nM and 240 nM; Response (human IgG (human) [3]): 0.181 nm and 0.119 nm; koff (human IgG (human) [3]): 0.00137 s⁻¹ and 0.00156 s⁻¹; kon (human IgG (human) [3]): 7110 M⁻¹ s⁻¹ and 6520 M⁻¹ s⁻¹ |
| HSV46 (HSV2- gE_P319A_gI) (from UniProt P89475 21-416; P06764 21-256) (receptor) | – | – | – | – | – | – | 73.5 | 158 | 0.000482 | 6630 | – |
| HSV47 (HSV2- gE_P319R_gI) (from UniProt P89475 21-416; P06764 21-256) (receptor) | – | – | – | – | – | – | 2550 | 5 | 0.00355 | 1490 | – |
| HSV48 (HSV2- gE_P319G_gI) (from UniProt P89475 21-416; P06764 21-256) (receptor) | – | – | – | – | – | – | 700 | 17 | 0.00556 | 8130 | – |
| HSV49 (HSV2- gE_P319K_gI) (from UniProt P89475 21-416; P06764 21-256) (receptor) | – | – | – | – | – | – | 1710 | 7 | 0.00217 | 1340 | – |
| HSV50 (HSV2- gE_P319T_gI) (from UniProt P89475 21-416; P06764 21-256) (receptor) | – | – | – | – | – | – | 8.91 | 1300 | 8.38e-05 | 9460 | – |
| HSV51 (HSV2- gE_H245A-P319A_gI) (from UniProt P89475 21-416; P06764 21-256) (receptor) | – | – | – | – | – | – | – | – | < 1e-07 | 11000 | – |
| HSV52 (HSV2- gE_H245A-P319R_gI) (from UniProt P89475 21-416; P06764 21-256) (receptor) | – | – | – | – | – | – | 2530 | 5 | 0.00304 | 1310 | – |
| HSV53 (HSV2- gE_H245A-P319G_gI) (from UniProt P89475 21-416; P06764 21-256) (receptor) | – | – | – | – | – | – | 807 | 14 | 0.00349 | 4480 | – |
| HSV54 (HSV2- gE_H245A-P319K_gI) (from UniProt P89475 21-416; P06764 21-256) (receptor) | – | – | – | – | – | – | 883 | 13 | 0.00284 | 3370 | – |
| HSV55 (HSV2- gE_H245A-P319T_gI) (from UniProt P89475 21-416; P06764 21-256) (receptor) | – | – | – | – | – | – | 201 | 58 | 0.00105 | 5330 | – |
| HSV56 (HSV2- gE_A337G_gI) (from UniProt P89475 21-416; P06764 21-256) (receptor) | – | – | – | – | – | – | 98.9 | 117 | 0.00082 | 8430 | – |
| HSV57 (HSV2- gE_P319D_gI) (from UniProt P89475 21-416; P06764 21-256) (receptor) | – | – | – | – | – | – | 9580 | 1 | 0.00403 | 362 | – |
| HSV58 (HSV2- gE_P319S_gI) (from UniProt P89475 21-416; P06764 21-256) (receptor) | – | – | – | – | – | – | 116 | 100 | 0.000604 | 5290 | – |
| HSV59 (HSV2- gE_S338D_gI) (from UniProt P89475 21-416; P06764 21-256) (receptor) | – | – | – | – | – | – | 890 | 13 | 0.00128 | 1550 | – |
| HSV60 (HSV2- gE_N241A_gI) (from UniProt P89475 21-416; P06764 21-256) (receptor) | – | – | – | – | – | – | 81.9 | 142 | 0.000727 | 8990 | – |
| HSV61 (HSV2- gE_R320D_gI) (from UniProt P89475 21-416; P06764 21-256) (receptor) | – | – | – | – | – | – | 2400 | 5 | 0.0012 | 514 | – |
| HSV62 (HSV2- gE_N241A-R320D_gI) (from UniProt P89475 21-416; P06764 21-256) (receptor) | – | – | – | – | – | – | 4200 | 3 | 0.00129 | 317 | – |
| HSV63 (HSV2- gE_N241A-P319D_gI) (from UniProt P89475 21-416; P06764 21-256) (receptor) | – | – | – | – | – | – | – | – | < 1e-07 | 3720 | – |
